From US20250144186A1, “NOVEL THERAPEUTIC USES OF GARDNERELLA ENDOLYSINS” (priority 2022, published 2025)
Like-named read-outs stand apart in the source and are kept apart here.

Legend:
[1] = system: passaged G. piotii biofilm; assay: MBEC on biofilms of passaged strains; assay type: cell-based, Gardnerella piotii; settings: G. piotii (UGent 18.01T) passaged with MDZ-OH
Protocol: (§1) Gardnerella spp. (see figures for strain specification) was resuspended in brain heart infusion broth supplemented with 2% (w/v) gelatin, 0.5% yeast extract (w/v), 0.1% starch (w/v) and 0.25% glucose (w/v) (sBHIG). Passaged strains were resuspended in unbuffered NYCB supplemented with 1% glucose (w/v) (sNYCB). The OD600 was set to 0.1 (approx. 10^7-10^8 CFU/mL) and the cell suspension was diluted 1:10 in growth medium as input for biofilm formation. A total of 200 μL of the respective bacterial suspensions was added to 96-well flat bottom plates (tissue-culture treated, Sigma-Aldrich). The biofilms were grown under anaerobic conditions at 37° C. for 40 to 72 hours, depending on the isolate. Subsequently, the supernatant was removed, and the biofilm was treated with antimicrobials dissolved in sBHIG (at pH 5 for treatment with PM-477 (H2B10), and unbuffered for treatment with antibiotics) in 100 μL and incubated anaerobically at 37° C. for another 24 hours. After the treatment, the biofilms were washed twice with 200 μL 1x PBS and dissolved by vigorous pipetting (40x up and down). Serial dilutions of the dissolved cells were spotted on chocolate agar plates. The plates were incubated anaerobically for two to three days and the minimum biofilm eradication concentration (MBEC) of the endolysin or the antibiotics in use were calculated.
(§2) All MICs determined after 48 h of incubation.

G. swidsinskii biofilm = assay type: cell-based, Gardnerella swidsinskii
Protocol: as §1
(§3) Gardnerella dominated biofilms covering the human vaginal epithelial cells are now generally considered as a hallmark of BV. Thus, it was tested how effective antibiotics and PM-477 (H2B10) are in penetrating and killing in vitro pre-formed, 40-72 h old biofilms of various Gardnerella strains.

passaged G. piotii = assay: MIC on strains passaged with MDZ-OH; assay type: cell-based, Gardnerella piotii; settings: G. piotii (UGent 18.01T) passaged with MDZ-OH, 48 h incubation
Protocol: (§4) The minimum inhibitory concentration (MIC), which is a standard measure of the activity of antimicrobials, was determined according to the Clinical and Laboratory Standards Institute protocol (2018) Methods for Antimicrobial Susceptibility Testing of Anaerobic Bacteria (Carpenter et al., 2018). […] Controls for growth in the absence of antimicrobials were also included. OD600 was recorded by a microplate reader (Tecan, Grodig, Austria) after incubation at 37° C. for 48 h or, for some fast-growing strains, after incubation for 24 h. Absence of growth was defined as OD600≤0.14. […] MIC readout and MBC99.5 spotting were performed after 72 h incubation for H2B10B11. MBC99.5 is the minimum concentration of an antibacterial agent that results in bacterial death of all cells in suspension up to a defined limit of detection, resulting in killing of at least 99.5% of bacteria.
The final volume of the reaction was 100 µL and the reactions were performed in triplicate in 384-well plates. The OD600 was measured using a microplate reader (Tecan, Grodig, Austria) to generate timepoint 0 h baseline values. […] In each round, the input CFU/mL was determined by quantitative plating.
The susceptibility of Gardnerella strains before and after 8 to 9-times passaging with sub-MIC concentrations of MZD or MDZ-OH is shown in Table 4 below. All MICs determined after 48 h of incubation.

All Gardnerella = assay: MIC assessment in suspension, panel of 22 strains; assay type: cell-based, Gardnerella spp.; settings: N=22 strains
Protocol: as §4, with “H2B10B11.” for “H2B10B11. MBC99.5 is the minimum concentration of an antibacterial agent that results in bacterial death of all cells in suspension up to a defined limit of detection, resulting in killing of at least 99.5% of bacteria.”
(§5) However, topical intravaginal antibiotic administration is recommended for BV therapy, which allows to reach concentrations of active ingredients in the mg/mL range. […] Abbreviations: n.d., not determined; SJHB, St. Jan Hospital Bruges.
(§6) MIC90 is defined as the MIC value for 90% of the tested strains. For PM-477 (H2B10), the resistance breakpoint is not defined, therefore a “% resistant” is not defined (n.d.).

[2] = system: passaged G. swidsinskii biofilm; assay: MBEC on biofilms of passaged strains; assay type: cell-based, Gardnerella swidsinskii
Protocol: as §1, §2

Gardnerella swidsinskii = assay: microbe, parasite or virus in culture; assay type: cell-based; settings: for MIC before passaging: 48 h incubation
Protocol: as §4, with “H2B10B11.” for “H2B10B11. MBC99.5 is the minimum concentration of an antibacterial agent that results in bacterial death of all cells in suspension up to a defined limit of detection, resulting in killing of at least 99.5% of bacteria.”
as §5, §6

Gardnerella vaginalis = assay: microbe, parasite or virus in culture; assay type: cell-based; settings: for MIC before passaging: 48 h incubation
Protocol: as §4, with “H2B10B11.” for “H2B10B11. MBC99.5 is the minimum concentration of an antibacterial agent that results in bacterial death of all cells in suspension up to a defined limit of detection, resulting in killing of at least 99.5% of bacteria.”
as §5, §6

G. vaginalis biofilm = assay: MBEC on pre-formed biofilms of ancestor isolates; assay type: cell-based, Gardnerella vaginalis
Protocol: as §1, §3

[3] = Gardnerella swidsinskii, N=4 strains

B1: PM-477: genetically engineered recombinant Gardnerella-specific endolysin, amino acid sequence SEQ ID NO: 1, His-tag cleaved off (protein)
chain: SKRGIDVSEWQGDIDFNAVKASGVEFVIIRAGYGIGCKDKWFEQNYRKAKTCGLDVGAYWYSYANSGFEAAEEAQSCVNMLSGKSFEYPVYFDLEEKSQLNRGRAFCDSLITGFCNKLESCGYYAGFYTSLSTANNLVSAHVRNRYALWIAQWNTHCSYQGSYGLWQYSSSGSVPGVAGRVDMDYAYVDYPSIIKNVGLNGYKNGGSYTAPQISSIDEVAREVINGDWGNGNERKQRLTSAGYDYASVQNKVNELLGVKAYRKSVDELAREVIRGTWGNGSTRKQRLTQAGYDYNAVQKRVNELL
modifications: His-tag cleaved off; H2B10
[1]
  MBEC passaged: <1 µg/mL
G. swidsinskii biofilm; ancestor G. swidsinskii GS 9838-1, pre-formed biofilm
  MBEC: <2 µg/mL
G. swidsinskii biofilm; ancestor G. swidsinskii UGent BV 7.1, pre-formed biofilm
  MBEC: 32 µg/mL
Passaged G. piotii
  MIC passaged: 2 µg/mL
All Gardnerella
  MIC90: 1 µg/mL
All Gardnerella; listed as PM-477 (H2B10)
  MIC Range: <0.03-1^ μg/mL
[2]; G. swidsinskii (GS 9838-1T) passaged with MDZ-OH
  MBEC passaged: 2 µg/mL
[2]; G. swidsinskii (UGent BV 7.1) passaged with MDZ-OH
  MBEC passaged: 2 µg/mL
Gardnerella swidsinskii; G. swidsinskii (BV7) UGent BV7.1
  MBC99.5: 0.25 µg/mL
Gardnerella swidsinskii; G. swidsinskii (BV7) UGent BV7.1, suspension
  MIC: 0.25 µg/mL
Gardnerella swidsinskii; G. swidsinskii (BV139) UGent BV139.3
  MBC99.5: 0.125 µg/mL
Gardnerella swidsinskii; G. swidsinskii (GS 9838-1T)
  MIC before passaging: 0.03 µg/mL
Gardnerella swidsinskii; G. swidsinskii (Gs23) GS 10234
  MBC99.5: 0.125 µg/mL
Gardnerella swidsinskii; G. swidsinskii (Gs23) GS 10234, suspension
  MIC: 0.063 µg/mL
Gardnerella swidsinskii; G. swidsinskii (Gs24) GS 9838-1(T)
  MBC99.5: 0.06 µg/mL
Gardnerella swidsinskii; G. swidsinskii (Gs24) GS 9838-1(T), suspension
  MIC: 0.03 µg/mL
Gardnerella swidsinskii; G. swidsinskii (UGent BV 7.1)
  MIC before passaging: 0.25 µg/mL
Gardnerella swidsinskii; [3]
  MIC90: 0.25 µg/mL
  MIC Range: 0.03 to 0.25 µg/mL
Gardnerella vaginalis; G. vaginalis (ATCC 14018T)
  MIC before passaging: 0.06 µg/mL
Gardnerella vaginalis; G. vaginalis (BV50) UGent BV50.1
  MBC99.5: 1 µg/mL
Gardnerella vaginalis; G. vaginalis (BV50) UGent BV50.1, suspension
  MIC: 0.5 µg/mL
Gardnerella vaginalis; G. vaginalis (BV111) UGent BV111.5
  MBC99.5: 0.5 µg/mL
Gardnerella vaginalis; G. vaginalis (BV111) UGent BV111.5, suspension
  MIC: 0.25 µg/mL
Gardnerella vaginalis; G. vaginalis (FB049) UGent FB049-01
  MBC99.5: 0.25 µg/mL
Gardnerella vaginalis; G. vaginalis (FB049) UGent FB049-01, suspension
  MIC: 0.25 µg/mL
Gardnerella vaginalis; G. vaginalis (FB061) UGent FB061-03
  MBC99.5: 2 µg/mL
Gardnerella vaginalis; G. vaginalis (FB061) UGent FB061-03, suspension
  MIC: 0.5 µg/mL
Gardnerella vaginalis; G. vaginalis (Gv1) UGent 09.07
  MBC99.5: 1 µg/mL
Gardnerella vaginalis; G. vaginalis (Gv1) UGent 09.07, suspension
  MIC: 0.25 µg/mL
Gardnerella vaginalis; G. vaginalis (Gv5) UGent 09.01
  MBC99.5: 0.125 µg/mL
Gardnerella vaginalis; G. vaginalis (Gv5) UGent 09.01, suspension
  MIC: <0.03 µg/mL
Gardnerella vaginalis; G. vaginalis (Gv8) UGent 25.49
  MBC99.5: 0.125 µg/mL
Gardnerella vaginalis; G. vaginalis (Gv8) UGent 25.49, suspension
  MIC: 0.03 µg/mL
Gardnerella vaginalis; G. vaginalis (Gv9) ATCC 14018(T), suspension
  MIC: 0.06 µg/mL
Gardnerella vaginalis; G. vaginalis (Gv9) ATCC 14018(T), reduces CFU by 99.5% within 24 h
  MBC99.5: 0.25 µg/mL
Gardnerella vaginalis; G. vaginalis (UGent 09.07)
  MIC before passaging: 0.25 µg/mL
Gardnerella vaginalis; G. vaginalis (UGent BV50)
  MIC before passaging: 0.5 µg/mL
Gardnerella vaginalis; Gardnerella vaginalis, N=8 strains
  MIC Range: <0.03 to 0.5 µg/mL
Gardnerella vaginalis; Gardnerella vaginalis, N=8 strains, MIC value for 90% of the tested strains
  MIC90: 0.5 µg/mL
G. vaginalis biofilm; G. vaginalis (ATCC14018), biofilm grown 40 h, treated 24 h
  Eradication of biofilm-grown cells (FIG. 1): can be eradicated
G. vaginalis biofilm; ancestor G. vaginalis ATCC14018, pre-formed biofilm, 24 h treatment
  MBEC: 32 µg/mL
G. vaginalis biofilm; ancestor G. vaginalis UGent 09.07, pre-formed biofilm
  MBEC: 16 µg/mL
G. vaginalis biofilm; ancestor G. vaginalis UGent BV50, pre-formed biofilm
  MBEC: 2 µg/mL
G. vaginalis biofilm; ancestor G. vaginalis UGent BV111.5, pre-formed biofilm
  MBEC: 8 to 32 µg/mL
G. vaginalis biofilm; ancestor G. vaginalis UGent FB049, pre-formed biofilm
  MBEC: 0.5 to 2 µg/mL
